Measured values from patent US7247441B2, “Nucleic acid sequence and protein in addition to polypeptides coding for mannitol dehydrogenases or parts thereof and the production and use thereof in diagnosis and therapy” (Biomay Produktions- Und Handels-Aktienge Sellschaft, priority 2002, dated 2007).

B1: protein prepared in accordance with example 10: recombinantly produced Alternaria alternata mannitol dehydrogenase, seq. ID No. 11, purified over a nickel chelate column, approximately 30 kD (protein, listed as Alternaria alternata)
chain: MPITVPQATELKDLFSLKGKVVIVTGASGPTGIGTEAARGCAEYGADLAITYNSRAEGAEKNAKEMSEKYGVKVKAYKCQVNEYAQCEKLVQDVIKDFGKVDVFIANAGKTADNGILDATVEQWNEVIQTDLTGTFNCARAVGLHFRERKTGSLVITSSMSGHIANFPQEQASYNVAKAGCIHLAKSLANEWRDFARVNSISPGYIDTGLSDFVPQDIQKLWHSMIPMGRDAKATELKGAYVYFASDASSYCTGSDLLIDGGYCVR
B2: native purified MtDH: major allergen of Cladosporium herbarum, a NADP-dependent mannitol dehydrogenase, 29 kD, seq. ID No. 8 (protein, listed as Cladosporium herbarum)
chain: MPGQQATKHESLLDQLSLKGKVVVVTGASGPKGMGIEAARGCAEMGAAVAITYASRAQGAEENVKELEKTYGIKAKAYKCQVDSYESCEKLVKDVVADFGQIDAFIANAGATADSGILDGSVEAWNHVVQVDLNGTFHCAKAVGHHFKERGTGSLVITASMSGHIANFPQEQTSYNVAKAGCIHMARSLANEWRDFARVNSISPGYIDTGLSDFVPKETQQLWHSMIPMGRDGLAKELKGAYVYFASDASTYTTGADLLIDGGYTTR

Tests used:
[1] = tested on: IgE of sera of Alternaria alternata-sensitized patients; assay: IgE immune blot of recombinant Alternaria alternata mannitol dehydrogenase with the sera of 28 patients; assay type: binding, human
From the text: The following procedure was chosen for purifying the recombinantly produced protein, which is provided with a poly-His fragment at the C terminus: the E. coli cells with the expression vector, which express the foreign protein, the Alternaria alternata mannitol dehydrogenase, were first lysed in the customary manner. […] The inclusion bodies formed by overexpression of the foreign protein were first solubilized in a buffer with 6-molar urea and subsequently purified by affinity chromatography over a nickel chelate column. The recombinantly produced mannitol dehydrogenase was applied in 6 M urea buffer. Imidazole buffer was employed for the elution. The protein-comprising fractions were subsequently purified further by preparative SDS-PAGE gel electrophoresis and analyzed, during which process it emerged that the allergen was already purified to virtually complete homogeneity.
The protein prepared in accordance with example 10 was separated by gel electrophoresis and tested in an IgE immune blot with the sera of 28 patients. All of the 28 sera originated from patients who had shown a positive response to the Alternaria alternata crude extract and who had been pretested both in a skin test and in an RAST. A pronounced band was visible in the immune blot in the case of 9 of the patients' sera tested. This corresponds to approximately 32% of the Alternaria alternata-sensitized patients.

IgE of patients' sera = assay: IgE immunoblots of Cladosporium herbarum crude extract with sera from 62 patients; assay type: binding, human; conditions: sera from 62 patients preselected in skin test or RAST, positive to Cladosporium herbarum extract
Procedure: For the purposes of the present invention, IgE immunoblots of Cladosporium herbarum crude extract were assayed with sera from 62 patients. An immunoreactive protein of molecular weight 29 kD, which was recognized by 61% of the patients' sera, was identified. […] No other allergen in the Cladosporium herbarum extract reacted with such a high percentage of patients' sera. It is therefore assumed that this protein is the major allergen of Cladosporium herbarum.

[2] = target: T1, Cladosporium herbarum mannitol dehydrogenase (Cladosporium herbarum, UniProt P0C0Y5); assay: Enzyme activity determination, absorption of NADPH at 340 nm; assay type: biochemical
T1 construct: the enzyme activity was determined with the traditionally purified protein; from tissue; host or cells: Cladosporium herbarum extract (ammonium sulfate precipitation, HIC, anion exchange)
Procedure: The experiments reveal that the highly purified major allergen of Cladosporium herbarum is indeed a mannitol dehydrogenase which catalyzes the following metabolic reaction: Fructose+NADPH+H^+ ? mannitol+NADP^+. […] The method of the activity determination is described in example 3.
To confirm the results according to the invention, the enzyme activity was determined with the traditionally purified protein. The absorption of NADPH was measured in a photometer at 340 nm.
• 50 mM Tris-HCl, pH 7.5 • 0.25 mM NADPH or NADH • D-fructose or fructose-6-phosphate (0.1; 0.2; 0.4; 0.6; 0.8; 1.0; 1.2 M) • H2O to 1 ml • the reaction is started with 0.5 μl of MtDH Results: • Reaction with fructose and NADPH • No reaction with fructose-6-phosphate and NADH

[3] = Two-dimensional separation by isoelectric focusing and SDS-PAGE; assay type: physicochemical
From the text: (§1) Native purified MtDH was separated under denaturing conditions in an isoelectric focusing (O'Farrel P H, J. Biol. Chem., 1975; 250:4007–21) according to the net charge (isoelectric point) of the protein. Thereafter, the protein separated thus was subjected to SDS gel electrophoresis (Laemmli U K, Nature, 1970; 27:680–5), whereby a separation by molecular weight took place in addition. The protein was transferred to a PVDF membrane in a Western blot (Towbin H et al., Proc. Natl. Acad. Sci. USA, 1979; 76:4350–4). After free binding sites had been saturated (30 minutes in blocking buffer: 50 mM sodium phosphate pH 7.5, 0.5% Tween 20, 0.5% BSA, 0.05% NaN3), the membrane was incubated with patients' serum (1:10 diluted in blocking buffer). Then, the membrane was washed (with blocking buffer, 3×10 minutes) to remove unspecifically bound antibodies. Specifically bound IgE-Ab were detected with the aid of an ^125I-labeled rabbit anti-human IgE antibody. After the membrane had been exposed to an X-ray film, the results were available: […]

[4] = tested on: IgE antibodies of C. herbarum allergy sufferers; assay: IgE immune blot of the native purified MtDH after separation in the SDS gel; assay type: binding, human
Procedure: The protein was purified to homogeneity in a conventional method (example 1). The yield amounted to 1 mg.
Native purified MtDH was separated by molecular weight in a reducing SDS gel (Laemmli U K, Nature, 1970; 27:680–5). Subsequently, the protein was transferred onto a PVDF membrane in a Western blot (Towbin H et al., Proc. Natl. Acad. Sci USA, 1979; 76:4350–4). After free binding sites had been saturated (30 minutes in blocking buffer: 50 mM sodium phosphate pH 7.5, 0.5% Tween 20, 0.5% BSA, 0.05% NaN3), the membrane was incubated with patients' serum (1:10 diluted in blocking buffer). Then, the membrane was washed (with blocking buffer, 3×10 minutes) to remove unspecifically bound antibodies. Specifically bound IgE-Ab were detected with the aid of an ^125I-labeled rabbit anti-human IgE antibody. After the membrane had been exposed to an X-ray film, the result was available.

[5] = tested on: IgE antibodies of C. herbarum allergy sufferers; assay: IgE immune blot of the native purified MtDH after 2-dimensional separation; assay type: binding; conditions: patients' serum 1:10, 125I-labeled anti-human IgE
From the text: as §1

Molecule	share of Alternaria alternata-sensitized patients with a pronounced band ([1]; 28 sera)	patients' sera with a pronounced band in the immune blot ([1]; of 28 sera positive to Alternaria alternata crude extract)	patients' sera recognizing the protein (IgE of patients' sera)	enzyme reaction ([2]; with fructose and NADPH)	enzyme reaction ([2]; with fructose-6-phosphate and NADH)	isoelectric point [3]	reaction with IgE antibodies of C. herbarum allergy sufferers ([4]; SDS gel, patients' serum 1:10, 125I-labeled anti-human IgE)	result in the IgE immunoblot ([4]; pool of six patients)	reaction with IgE antibodies of C. herbarum allergy sufferers [5]
B1	approximately 32%	9	–	–	–	–	–	–	–
B2	–	–	61%	Reaction	No reaction	5.8	reacts specifically	highly positive	reacts specifically
